Expansion of CD4+CD25+CD127low/-Foxp3+ Treg cells in human PBMC MLR, with or without CD45 inhibitor data for one substance are collected here from patent US20260242441A1.

The target of this experiment is CD45 (PTPRC) phosphatase, endogenous, of Jurkat cells and human PBMC (human) (UniProt P08575). The experiment can be described thus: cell-based or functional assay.

In the case of “soluble recombinant human BTN2A2-Fc fusion protein (baculovirus / insect cell derived)”, the expansion of CD4+CD25+CD127low/-Foxp3+ Treg cells in human PBMC MLR, with or without CD45 inhibitor was found to be 2 fold.
